The target of test [1] is GST-TA3mut (functionally impaired TA3 mutant, aa 361-370 replaced by alanines, fused to GST) (mouse) (UniProt Q04207). Briefly: affinity purification with mass spectrometry; SILAC; GST baits (GST-TA3, GST-TA3mut) immobilised; nuclear extracts of TNF-α-treated HeLa S3 cells or of 3T3 fibroblasts, 4 hours at 4°C; wash 20 mM Hepes pH 7.6, 1 mM EDTA, 10% glycerol, 0.1% NP40, 100 mM KCl; elution with 0.2% sarkosyl; label swap, four biological replicates.

Test [2] shares this target. Nature of the test: pull-down; GST alone, GST-TA3 or GST-TA3mut as baits; transfected HEK-293 cells overexpressing tagged Zbtb7a; Zbtb7a detected by immunoblotting. (A western blot detects proteins with antibodies after separation by electrophoresis.)

UniProt Q04207, sequence (Q04207 other isoform, or with tags, fused parts or gaps, change not shown): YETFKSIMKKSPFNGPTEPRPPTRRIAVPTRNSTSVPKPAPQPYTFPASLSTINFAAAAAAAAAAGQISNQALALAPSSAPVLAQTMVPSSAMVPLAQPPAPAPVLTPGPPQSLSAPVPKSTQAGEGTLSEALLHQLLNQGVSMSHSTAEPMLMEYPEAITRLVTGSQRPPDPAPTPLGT

Regarding “Zbtb7a, endogenous in nuclear extracts of TNF-α-stimulated human HeLa S3 cells (from UniProt O95365 1-584) (natural protein)”, the fold reduction of binding against unmutated TA3 in test [1] fell in the range of 5 to 7 times.
In turn, “tagged Zbtb7a overexpressed in transfected HEK-293 cells (from UniProt O88939 1-569) (natural protein)” returned a fold reduction of binding against unmutated TA3 in test [2] of 2 times.

The values are drawn from PMC5993293.
